Experiments:
[1] = molecular target: NLuc–CLR–RAMP3 receptor (AM2R) in COS-7 membranes (human) (UniProt Q16602); assay: FRET or BRET
RAMP2–CLR ECD = settings: read-out: KI, equilibrium affinity; purified RAMP2–CLR ECD complex; ref [31]; cited from earlier work
RAMP3–CLR ECD = settings: read-out: KI, equilibrium affinity; purified RAMP3–CLR ECD complex; ref [31]; cited from earlier work

NLuc–CLR–RAMP3 receptor (AM2R) in COS-7 membranes (human), sequence (Q16602 23-461, chain 1 of 2): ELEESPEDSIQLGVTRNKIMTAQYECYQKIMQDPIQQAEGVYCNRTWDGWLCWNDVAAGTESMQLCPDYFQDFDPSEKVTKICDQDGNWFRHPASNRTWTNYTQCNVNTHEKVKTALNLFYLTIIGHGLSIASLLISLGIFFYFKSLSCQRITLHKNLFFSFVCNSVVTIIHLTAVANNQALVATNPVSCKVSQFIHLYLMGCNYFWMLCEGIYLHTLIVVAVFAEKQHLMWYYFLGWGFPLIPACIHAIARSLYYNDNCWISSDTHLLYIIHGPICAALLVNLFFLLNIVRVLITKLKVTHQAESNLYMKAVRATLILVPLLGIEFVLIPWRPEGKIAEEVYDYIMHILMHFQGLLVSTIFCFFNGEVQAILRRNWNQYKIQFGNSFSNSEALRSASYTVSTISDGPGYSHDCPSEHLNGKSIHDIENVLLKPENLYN
NLuc–CLR–RAMP3 receptor (AM2R) in COS-7 membranes (human), sequence (O60896 24-148, chain 2 of 2, further chain): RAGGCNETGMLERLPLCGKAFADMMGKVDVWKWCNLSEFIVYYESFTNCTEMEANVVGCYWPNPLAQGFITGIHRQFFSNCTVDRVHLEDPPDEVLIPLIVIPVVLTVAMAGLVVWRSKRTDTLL

Kd [1] [µM]	half-life (t1/2) from the off-rate of the association kinetics [1] [min]	half-life of the fast component of dissociation [1] [min]	half-life of the slow component of dissociation [1] [min]	Substance	Ki (RAMP2–CLR ECD) [µM]	Ki (RAMP3–CLR ECD) [µM]
0.007	41	7	76	AM2/IMD–TAMRA (peptide)	–	–
–	–	–	–	AM2/IMD: Synthetic human peptide AM2/IMD(1–47) purchased from Bachem	~14	~2
0.026	2.6	0.75	6.9	AM–TAMRA (peptide)	–	–
